Measured values taken from US20150266962A1.

Target: human IL-13Rα2 on the surface of human tumour cell lines (human) (UniProt Q14627)
Experiment: cell-based or functional assay

Sequence of human IL-13Rα2 on the surface of human tumour cell lines (human) (Q14627 27-380): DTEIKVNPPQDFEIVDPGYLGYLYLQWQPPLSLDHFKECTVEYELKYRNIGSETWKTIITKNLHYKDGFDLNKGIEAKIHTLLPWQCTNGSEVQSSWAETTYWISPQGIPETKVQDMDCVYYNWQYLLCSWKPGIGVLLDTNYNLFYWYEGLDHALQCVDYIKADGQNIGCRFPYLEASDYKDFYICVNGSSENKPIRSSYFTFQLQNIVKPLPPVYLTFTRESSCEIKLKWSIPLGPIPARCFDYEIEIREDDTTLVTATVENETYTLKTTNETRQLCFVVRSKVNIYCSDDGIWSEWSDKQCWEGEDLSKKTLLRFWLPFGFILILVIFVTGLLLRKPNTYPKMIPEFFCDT

| Substance | % internalization, 15 min, A375 | % internalization, 15 min, H460R | % internalization, 15 min, Hs766T | % internalization, 15 min, PC3MM2 | % internalization, 4 hours, A375 | % internalization, 4 hours, H460R | % internalization, 4 hours, Hs766T | % internalization, 4 hours, PC3MM2 | IC50 (ng Ab/mL), in vitro cytotoxicity, A375 | IC50 (ng Ab/mL), in vitro cytotoxicity, PC3MM2 |
| --- | --- | --- | --- | --- | --- | --- | --- | --- | --- | --- |
| ab27414 (Abcam), monoclonal mouse IgG1 anti-IL-13Rα2 (antibody) | 49.3% | 57.5% | 60.8% | 60.2% | 68.2% | 49.2% | 73.6% | 49.7% |  |  |
| hIgG8.8-mc-3377 non-binding control ADC (antibody) |  |  |  |  |  |  |  |  | > 400000 ng Ab/mL | > 400000 ng Ab/mL |
| hIgG8.8-vc-0101 non-binding control ADC (antibody) |  |  |  |  |  |  |  |  | > 400000 ng Ab/mL | > 400000 ng Ab/mL |
